Measurements: patent US20260124313A1, “SITE-SPECIFIC COVALENT LIGATION OF HUMAN SERUM ALBUMIN” (The Regents of the University of California, priority 2022, published 2026)
Non-standard residues stand in square brackets, D forms with d. No end group written: not given here. *: point of attachment. Myristoyl = CCCCCCCCCCCCCC(=O)*; Aad = N[C@@H](CCCC(=O)O)C(=O)O; Acryloyl = C=CC(=O)*

Biological target: T1, albumin in human serum (Homo sapiens, UniProt P02768)
T1 construct: tissue Sigma Aldrich; host or cells: human serum
Test: Conjugation to serum-borne HSA in human serum, SDS-PAGE fluorescence and Coomassie Blue
Format: biochemical
Experimental: Protein SDS-PAGE gels were exposed at green channel (Exc.=490 nm, Emm.=525 nm), then stained by Coomassie Blue.
To 100 μl human serum was added 10 μl FC-LYL1 or 10 μl FC-Mal stock solution (1 mM). The albumin content in serum is presumed to be 600 μM for healthy donors. The final concentrations of albumin and FC-labeled reactive probes in the reaction mixture are calculated to be 545 µM and 91 μM, respectively. The serum/ligands mixture was incubated at 37° C. in dark. The conjugation reactions were setup every 3 days, and […] conjugation reactions were setup in total for 3 weeks. The serum mixtures were subjected to electrophoresis and Coommassie Blue Staining without further treatment. Since albumin to probe ratio was about 6:1 and there are 5 known fatty acid binding sites on each albumin molecule, fatty acid binding site:probe ratio was over […]. We therefore believe significant portion of the reactive probes would be sequestered in the “non-productive” (no covalent ligation) fatty acid binding sites most of the time.

reaction speed in human serum (545 μM albumin, 91 μM probe, 37° C.): slow reaction over days
selectivity of protein labeling in serum (human serum, SDS-PAGE green channel): can selectively label albumin content
Substance: FC-LYL1: FITC-tagged LYL1 (Myristoyl-[dE]DK(Acryloyl)[dS][Aad]; not fully specified (C-terminus); also: FITC on amino group of C-terminal lysine)
